The text below walks through data of patent publication US10434074B2, “Peptide and small molecule agonists of EPHA and uses thereof” (CASE WESTERN RESERVE UNIVERSITY, priority 2004, dated 2019).

Entries after “also recorded” stand apart in the source; their conditions may differ.

The subject of one test is DU-145 cells. Description: HGF/SF-induced cell scattering / EMT. Format: cell-based, human. As for the experimental part:
FIGS. 4(A-B) illustrate EphA activation attenuated cell scattering induced by HGF/SF. DU-145 cells were cultured in the presence of indicated reagents. Cell morphology was recorded 24 and 48 hours after the initiation of treatments (A). Numbers of total cells and cells without contact with other cells were counted in 6-8 randomly chosen fields (B). * HGF/SF/Fc vs. HGF/SF/ephrinA1-Fc: p<10^−5.
Tumor cells scattering/detaching from primary tumors is considered as the first step in tumor metastasis. In addition to promoting cell migration and invasion, HGF/SF is known to disrupt cell-cell adhesion mediated by E-cadherin, induce epithelial-mesenchymal transition (EMT) and cause cell scattering. Therefore, we examined the effects of EphA2 activation on EMT and scattering induced by HGF/SF. DU-145 cells were treated with Fc (control) or ephrin-A1-Fc in the presence or absence of HGF/SF. Cell morphology was recorded 24 and 48 hours after the addition of stimuli (FIGS. 4A and B). In control Fc-treated cells, only about 5% of cells were found as individual cells with no direct contact with neighboring cells, while remaining cells aggregate to form colonies with typical epithelial morphology. […] Following 24 hour HGF treatment, most of cells underwent EMT characterized by detachment from each other and transformation into spindle-shaped fibroblastic morphology. […]

The next test has as its system E-cadherin. Description: E-cadherin immunoblot and immunofluorescence. Format: cell-based, human. As for the experimental part:
FIGS. 5(A-E) illustrate (A) Ephrin-A1 co-stimulation inhibited the loss of E-cadherin induced by HGF/SF. DU-145 cells were treated as indicated for 24 or 48 hours. Cell lysates were subject to anti-E-cadherin immunoblot. Same membrane was stripped and blotted with anti-ERK1 as loading control. Relative intensity of E-cadherin=intensities of E-cadherin band/intensity of ERK band. (B) Immunofluorescent staining of E-cadherin after 24 hours of the indicated treatment. Note almost exclusive cytoplasmic staining pattern in HGF/SF treated cells, while cotreatment with ephrin-A1 restored significant levels of E-cadherin at cell-cell junction. (C) Ephrin-A1-Fc pre-treatment preserved E-cadherin expression in HGF/SF treated cells. DU-145 cells were pre-treated with Fc or ephrin-A1-Fc for 24 hours. HGF/SF was then added. The cells were cultured for another 24 hours and lysed for anti-E-cadherin immunoblot. Anti-ERK1 was used as loading control. (D) Cells grown on cover slips received same treatment as in C were subject to anti-E-cadherin immunofluorescence analysis. Note the significant preservation of E-cadherin localization at cell-cell adhesion site by ephrin-A1-Fc compared with Fc control. (E) Numbers of total cells and cells without contact with other cells were counted in 6-8 randomly chosen fields. * Fc/HGF/SF vs. ephrin-A1-Fc/HGF/SF: p=4.6×10^−7.
Cells were cultured on cover slips in 24-well dishes for 24 hours, fixed in 4% formaldehyde for 20 minutes and permeabilized with 0.5% NP-40 for 10 minutes. Blocking was performed using blocking solution containing 2% BSA and 2% goat serum in PBS. Subsequently, cells were incubated with 1 μg/ml anti-EphA2 or anti-E-cadherin antibody. A Texas Red-conjugated goat anti-rabbit IgG or FITC-conjugated rabbit anti-mouse IgG was used to visualize the primary antibodies. Vector-Shield mounting solution containing DAPI (Vector Laboratories) was used to mount the cover slips onto slides.
Cells cultured in 6 well plates at 70-80% confluence were stimulated with 0.5 μg/ml Fc, 1 μg/ml epnrinA1-Fc or 20 ng/ml HGF/SF or their combinations as indicated. After stimulation, cells were lysed in RIPA buffer (20 mM Tris, pH7.4, 125 mM NaCl, 20 mM NaF, 0.1% SDS, 10% glycerol, 0.5% sodium deoxycholate, and 1% TX-100, 0.5 mM Na3VO4) containing protease inhibitors (1 mM phenylmethylsulphonyl fluoride, and 2 μg/ml each of aprotinin and leupeptin). Cell lysates were clarified by centrifugation at 13,000 rpm for 5 min. Immunoprecipitation was carried out by adding anti-EphA2 antibody to clarified cell lysates and incubated for 1 hour at 4° C. The immunocomplex was captured using γ-bind beads (Pharmacia). Cell lysates or precipitated proteins were separated on 4-20% Tris-glycine gels (Invitrogen) and transferred to Immobilon-P PVDF membranes (Millipore). […] For quantitative analysis, band densities were measured using KODAK 1D imagine analysis software (Eastman Kodak Company).

B1: ephrin-A1-Fc: ephrin-A1 dimerized by fusion to the heavy chain of human IgG1 (protein)
chain: DRHTVFWNSSNPKFRNEDYTIHVQLNDYVDIICPHYEDHSVADAAMEQYILYLVEHEEYQLCQPQSKDQVRWQCNRPSAKHGPEKLSEKFQRFTPFTLGKEFKEGHSYYYISKPIHQHEDRCLRLKVTVSGKITHSPQAHDNPQEKRLAADDPEVRVLHSIGHS
modifications: left off: a dimerising Fc or GST
notes: ephrin-A1 dimerized by fusion to the heavy chain of human IgG1
In the case of B1, the “fraction of scattered cells” value with DU-145 cells (24 hour HGF treatment, 95% with HGF and Fc) is recorded as 15%. In the test with DU-145 cells (without HGF/SF), the cell morphology result is listed as “more compact cobblestone morphology”. Besides, the “total E-cadherin, 24 hours pretreatment before HGF/SF” value with E-cadherin (immunoblot) is “significantly prevented HGF/SF-induced down-regulation of total cellular E-cadherin”. Also, the “total E-cadherin on co-treatment with HGF/SF” value in the test on E-cadherin (immunoblot, 24 or 48 hours) is recorded as “significantly preserved”. In the test on E-cadherin (immunofluorescence), the “E-cadherin at cell-cell junction, 24 hours pretreatment before HGF/SF” value is reported as “significant fraction of E-cadherin was retained at cell-cell junction” and the “E-cadherin at cell-cell junctions on co-treatment with HGF/SF” value is listed as “dramatically retained”. The E-cadherin expression result with E-cadherin (ligand alone vs Fc, immunoblot) is recorded as “moderately increased E-cadherin expression; also recorded: increased E-cadherin expression at 48 hours”.
